# Measured values from publication PMC12444091.
# Tests used:
# Assay in all cases: potentiometry
# Conditions in all cases: 25 °C (± 0.2 °C); 0.1 M (KCl); none (4 mM HCl, 0.1 M KCl); peptide 0.001 M; metal-free peptide, unstructured (random-coil CD spectrum)
# [1] = biological target: His124 (UniProt position 124, …)
# [2] = biological target: Asp129 (UniProt position 129, …)
# [3] = biological target: His124 (UniProt position 124, …); remark: listed apart in the source
# [4] = biological target: Asp129 (UniProt position 129, …); remark: listed apart in the source
# [5] = biological target: Asp129 (UniProt position 129, …); remark: listed apart in the source
protein,measurement,setting,value
"HEERQDEA [HSPB1(124-131) peptide L2, Ac-HEERQDEA-NH2 (Homo sapiens; H131A)]",pKa,[1],7.00
same,pKa,[2],3.60
"HEARQDEA [HSPB1(124-131) peptide L3, Ac-HEARQDEA-NH2 (Homo sapiens; E126A;H131A)]",pKa,[3],6.71
same,pKa,[4],3.47
"HEARQDEH [HSPB1(124-131) peptide L4, Ac-HEARQDEH-NH2 (Homo sapiens; E126A)]",pKa,[5],3.26
